Data published in patent US20190071480A1 (Biogen, published 2019).

Key:
[1] = biological target: T1, extracellular domain of activin receptor type IIB (ActRIIBecd), biotinylated (Homo sapiens (Human), UniProt Q13705 27-117, amino-biotinylated with amine-PEG3-Biotin); assay: BIAcore SPR as Example 5 (method not restated); SD ±2.45 nM
T1 construct: immobilised on a streptavidin-coated sensor chip; also called biotinylated ActRIIBecd; extracellular domain of ActRIIB
T1 sequence: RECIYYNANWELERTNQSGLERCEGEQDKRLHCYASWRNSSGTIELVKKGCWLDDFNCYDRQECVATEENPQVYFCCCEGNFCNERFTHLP
Procedure: (§1) Biosensor experiments. In one embodiment, experiments were performed on a BIAcore™ T100/T200 instrument (Pharmacia Biosensor AB) in the multichannel mode (serial flow path involving flow cells 1+2+3+4). Flow rate was 10 μl/min; temperature was 25° C.; and data were recorded at 2.5 points/s. All four segments of a sensor chip CMS were coated with streptavidin (Sigma) to a density of 2000 pg/mm² (2000 resonance units) by the aminocoupling procedure. ActRIIBecd (10 mg) and amine-PEG3-Biotin (10 mg, Pierce, Rockford, Ill.) were dissolved in 200 μl H₂O and 10 mg NaCNBH₃ was added to prepare biotinylated ActRIIBecd. The reaction mixture was heated at 70° C. for 24 h, after that a further 10 mg NaCNBH₃ was added and the reaction was heated at 70° C. for another 24 h. After cooling to room temperature, the mixture was desalted with the spin column (3,000 molecular weight cut off (MWCO)). […] Sensograms were recorded during flow of the analyte (the ActRIIBecd-associated polypeptides (i.e., domains) as previously described) first through flow cell 1 (control) then through flow cell 2 (biotinylated ActRIIBecd). […] The sensograms obtained at 1.11, 3.33, 10, 30, and 90 nM analyte were evaluated for equilibrium binding, association rate, and dissociation rate by using the programs supplied with the instrument (BIA evaluation 2.1; Software Handbook. 1995; Pharmacia Biosensor AB).

[2] = biological target: T1, extracellular domain of activin …; assay: Mean KD column of Table 5; method not restated (BIAcore as Example 5); species also listed in Table 4
Procedure: Biosensor experiments. In one embodiment, experiments were performed on a BIAcore™ T100/T200 instrument (Pharmacia Biosensor AB) in the multichannel mode (serial flow path involving flow cells 1+2+3+4). Flow rate was 10 μl/min; temperature was 25° C.; and data were recorded at 2.5 points/s. All four segments of a sensor chip CMS were coated with streptavidin (Sigma) to a density of 2000 pg/mm² (2000 resonance units) by the aminocoupling procedure. ActRIIBecd (10 mg) and amine-PEG3-Biotin (10 mg, Pierce, Rockford, Ill.) were dissolved in 200 μl H₂O and 10 mg NaCNBH₃ was added to prepare biotinylated ActRIIBecd. The reaction mixture was heated at 70° C. for 24 h, after that a further 10 mg NaCNBH₃ was added and the reaction was heated at 70° C. for another 24 h. After cooling to room temperature, the mixture was desalted with the spin column (3,000 molecular weight cut off (MWCO)). Biotinylated ActRIIBecd was collected, freeze-dried and used for streptavidin (SA) chip preparation. Amino-biotinylated ActRIIBecd was then immobilized independently on flow cells 2-4 for 10 minutes at a flow rate of 5 μL/min and a concentration of 20 μM in 10 mM sodium acetate, pH 4.0, at a density of 50-250 resonance units (RU). The stored polypeptides were dissolved in glycine buffer (2.5 g of glycine, 0.5 g of sucrose, 370 mg of L-glutamate, 10 mg of sodium chloride, and 10 mg of Tween 80 in 100 mL water, pH 4.5) to prepare 10 mg/mL solution and then diluted with previous glycine buffer to prepare analytes with various concentration. Sensograms were recorded during flow of the analyte (the ActRIIBecd-associated polypeptides (i.e., domains) as previously described) first through flow cell 1 (control) then through flow cell 2 (biotinylated ActRIIBecd). The sensogram obtained for flow cell 1 was subtracted from the sensogram obtained for flow cell 2. The sensograms obtained at 1.11, 3.33, 10, 30, and 90 nM analyte were evaluated for equilibrium binding, association rate, and dissociation rate by using the programs supplied with the instrument (BIA evaluation 2.1; Software Handbook. 1995; Pharmacia Biosensor AB).

[3] = biological target: T1, extracellular domain of activin …; assay: BIAcore SPR as Example 5 (method not restated); SD ±1.37 nM
Procedure: as §1

[4] = biological target: T1, extracellular domain of activin …; assay: BIAcore SPR as Example 5 (method not restated); SD ±1.77 nM
Procedure: as §1

[5] = biological target: T1, extracellular domain of activin …; assay: BIAcore SPR as Example 5 (method not restated); SD ±1.74 nM
Procedure: as §1

[6] = biological target: T1, extracellular domain of activin …; assay: BIAcore SPR, biotinylated ActRIIBecd on chip; SD ±16.41 nM
Procedure: as §1

[7] = biological target: T1, extracellular domain of activin …; assay: BIAcore SPR as Example 5 (method not restated); SD ±1.35 nM
Procedure: as §1

[8] = biological target: T1, extracellular domain of activin …; assay: BIAcore SPR as Example 5 (method not restated); SD ±1.07 nM
Procedure: as §1

[9] = biological target: T1, extracellular domain of activin …; assay: BIAcore SPR as Example 5 (method not restated); SD ±2.10 nM
Procedure: as §1

B1: SEQ ID NO: 268, cysteine pairs C23-C27^a, C65-C65^b, C79-C114^b, C80-C112^b (designed binder)
chain: VDFSDVGWNDWIVAPPGYHAFYCHGECPFPLADHLNSTNHAIVQTLVNSVAQAKHKQRKRLKSSCKRHPLYNSKIPKACCVPTELSAISMLYLDENEKVVLKNYQDMVVEGCGCR
modifications: disulfides C23-C27 (intra), C65-C65 (inter), C79-C114 (inter), C80-C112 (inter)
notes: homodimer by intermolecular disulfide
B1 showed a Kd [1] of 8.03 nM and a Kd [2] of 8.03 nM.

B2: SEQ ID NO: 316, cysteine pairs C67-C71^a, C8-C41^a, C9-C43^a, C109-C109^b (designed binder)
chain: NSKDPKACCVPTELSAPSPLYLDENEKPVLKNYQDMVVHGCGCRVDFKDVGWNDHAVAPPGYHAFYCHGECPFPLADHLNSDNHAIVQTKVNSVGQAKRKGYKRLKSSCKRHPLY
modifications: disulfides C67-C71 (intra), C8-C41 (intra), C9-C43 (intra), C109-C109 (inter)
notes: as for B1
B2 showed a Kd [3] of 5.34 nM and a Kd [2] of 5.34 nM.

B3: SEQ ID NO: 276, cysteine pairs C67-C71^a, C8-C41^b, C9-C43^b, C109-C109^b (designed binder)
chain: NSKIPKACCVPTELSAISMLYLDENEKVVLKNYQDMVVEGCGCRVDFSDVGWNDWIVAPPGYHAFYCHGECPFPLADHLNSTNHAIVQTLVNSVAQAKHKQRKRLKSSCKRHPLY
modifications: disulfides C67-C71 (intra), C8-C41 (inter), C9-C43 (inter), C109-C109 (inter)
notes: as for B1
Work on B3 yielded a Kd [4] of 8.13 nM and a Kd [2] of 8.13 nM.

B4: SEQ ID NO: 248, cysteine pairs C67-C71^a, C8-C41^a, C9-C43^a (designed binder)
chain: NSKDPKACCVPTELSAPSPLYLDENEKPVLKNYQDMVVHGCGCRVDFKDVGWNDHAVAPPGYHAFYCHGECPFPLADHLNSDNHAIVQTKVNSV
modifications: disulfides C67-C71 (intra), C8-C41 (intra), C9-C43 (intra)
Binder B4 has a Kd [5] of 18.5 nM and a Kd [2] of 18.5 nM.

B5: Clone No. 30 domain (ActRIIBecd-associated polypeptide) (peptide)
chain: TALDGTRGAQGSGGGGGGGGGGGGGGGGGGGGAGRGHGRRGRSRCSRKSLHVDFKELG
With B5 the Kd [6] was 61.7 nM.

B6: SEQ ID NO: 260, cysteine pairs C79-C80^a (designed binder)
chain: AQAKHKQRKRLKSSCKRHPLYVDFSDVGWNDWIVAPPGYHAFYCHGECPFPLADHLNSTNHAIVQTLVNSVNSKIPKACCVPTELSAISMLYLDENEKVVLKNYQDMVVEGCGCR
modifications: disulfides C79-C80 (intra)
B6 gave a Kd [7] of 29.1 nM and a Kd [2] of 29.1 nM.

B7: SEQ ID NO: 260, cysteine pairs C80-C114^a, C79-C112^a, C44-C48^a (designed binder)
chain: AQAKHKQRKRLKSSCKRHPLYVDFSDVGWNDWIVAPPGYHAFYCHGECPFPLADHLNSTNHAIVQTLVNSVNSKIPKACCVPTELSAISMLYLDENEKVVLKNYQDMVVEGCGCR
modifications: disulfides C80-C114 (intra), C79-C112 (intra), C44-C48 (intra)
For B7, the Kd [8] was 8.31 nM and the Kd [2] was 8.31 nM.

B8: SEQ ID NO: 324, cysteine pairs C79-C80^a (designed binder)
chain: AQAKHKQRKRLKSSCKRHPLYVDFKDVGWNDHAVAPPGYHAFYCHGECPFPLADHLNSDNHAIVQTKVNSVNSKIPKACCVPTELSAISMLYLDENEKVVLKNYQDMVVEGCGCR
modifications: disulfides C79-C80 (intra)
B8 showed a Kd [9] of 29.3 nM and a Kd [2] of 29.3 nM.

B9: SEQ ID NO: 324, cysteine pairs C15-C15^b, C80-C114^b, C79-C112^b, C44-C48^a (designed binder)
chain: AQAKHKQRKRLKSSCKRHPLYVDFKDVGWNDHAVAPPGYHAFYCHGECPFPLADHLNSDNHAIVQTKVNSVNSKIPKACCVPTELSAISMLYLDENEKVVLKNYQDMVVEGCGCR
modifications: disulfides C15-C15 (inter), C80-C114 (inter), C79-C112 (inter), C44-C48 (intra)
notes: as for B1
For B9, the Kd [4] was 9.11 nM and the Kd [2] was 9.11 nM.

B10: SEQ ID NO: 254, cysteine pairs C23-C27^a, C58-C91^a, C59-C93^a (designed binder)
chain: VDFKDVGWNDHAVAPPGYHAFYCHGECPFPLADHLNSDNHAIVQTKVNSVNSKDPKACCVPTELSAPSPLYLDENEKPVLKNYQDMVVHGCGCR
modifications: disulfides C23-C27 (intra), C58-C91 (intra), C59-C93 (intra)
B10 gave a Kd [5] of 17.6 nM and a Kd [2] of 17.6 nM.
